These results are taken from US20210198640A1 (DENALI THERAPEUTICS, published 2021).

For one assay, the target named is CH3C.35.N153.bi. Briefly: SPR, TfR ECD captured, clone injected, steady state.
Assay [1] addresses T1, human transferrin receptor protein 1 (TfR) (human, UniProt P02786 89-760, limits assumed).
T1 construct: also called human TfR; hTfR
Description: ELISA, TfR coated on plate, Fc-Fab fusion. On the technique in general: In an ELISA, binding on a coated surface is turned into a signal by an enzyme label.

Assay [2] deals with T1, human transferrin receptor protein 1 …. Description: selection from soft randomization libraries.

B1: recombinant cyno TfR ectodomain (ECD), biotinylated (receptor)
chain: CKGVEPKTECERLAGTESPAREEPEEDFPAAPRLYWDDLKRKLSEKLDTTDFTSTIKLLNENLYVPREAGSQKDENLALYIENQFREFKLSKVWRDQHFVKIQVKDSAQNSVIIVDKNGGLVYLVENPGGYVAYSKAATVTGKLVHANFGTKKDFEDLDSPVNGSIVIVRAGKITFAEKVANAESLNAIGVLIYMDQTKFPIVKADLSFFGHAHLGTGDPYTPGFPSFNHTQFPPSQSSGLPNIPVQTISRAAAEKLFGNMEGDCPSDWKTDSTCKMVTSENKSVKLTVSNVLKETKILNIFGVIKGFVEPDHYVVVGAQRDAWGPGAAKSSVGTALLLKLAQMFSDMVLKDGFQPSRSIIFASWSAGDFGSVGATEWLEGYLSSLHLKAFTYINLDKAVLGTSNFKVSASPLLYTLIEKTMQDVKHPVTGRSLYQDSNWASKVEKLTLDNAAFPFLAYSGIPAVSFCFCEDTDYPYLGTTMDTYKELVERIPELNKVARAAAEVAGQFVIKLTHDTELNLDYERYNSQLLLFLRDLNQYRADVKEMGLSLQWLYSARGDFFRATSRLTTDFRNAEKRDKFVMKKLNDRVMRVEYYFLSPYVSPKESPFRHVFWGSGSHTLSALLESLKLRRQNNSAFNETLFRNQLALATWTIQGAANALSGDVWDIDNEF
Take B1: the affinity in the assay with CH3C.35.N153.bi, expressed as Kd, was 3.3 µM.

B2: Clone CH3C.3.2-1 (designed binder)
chain: APELLGGPSVFLFPPKPKDTLMISRTPEVTCVVVDVSHEDPEVKFNWYVDGVEVHNAKTKPREEQYNSTYRVVSVLTVLHQDWLNGKEYKCKVSNKALPAPIEKTISKAKGQPREPQVYTLPPSRDELTKNQVSLTCLVKGFYPSDIAVEWESLGHVWVNFKTTPPVLDSDGSFFLYSKLTVPKSTWQQGWVFSCSVMHEALHNHYTQKSLSLSPGK
notes: modified Fc polypeptide
For the molecule B2, the binding result in assay [1] is given as “binds”.

B3: Clone CH3C.34 (designed binder)
chain: APELLGGPSVFLFPPKPKDTLMISRTPEVTCVVVDVSHEDPEVKFNWYVDGVEVHNAKTKPREEQYNSTYRVVSVLTVLHQDWLNGKEYKCKVSNKALPAPIEKTISKAKGQPREPQVYTLPPSRDELTKNQVSLTCLVKGFYPSDIAVEWESLGLVWVFSKTTPPVLDSDGSFFLYSKLTVPKSTWQQGWVFSCSVMHEALHNHYTQKSLSLSPGK
notes: modified Fc polypeptide
Consider B3, for which the binding result in assay [2] was “binds”.

B4: Clone CH3C.25 (designed binder)
chain: APELLGGPSVFLFPPKPKDTLMISRTPEVTCVVVDVSHEDPEVKFNWYVDGVEVHNAKTKPREEQYNSTYRVVSVLTVLHQDWLNGKEYKCKVSNKALPAPIEKTISKAKGQPREPQVYTLPPSRDELTKNQVSLTCLVKGFYPSDIAVEWESMGHVWVGYKTTPPVLDSDGSFFLYSKLTVDKSTWQQGWVFSCSVMHEALHNHYTQKSLSLSPGK
notes: modified Fc polypeptide
Take B4: the binding result in assay [2] was “binds”.

B5: Clone CH3C.21 (designed binder)
chain: APELLGGPSVFLFPPKPKDTLMISRTPEVTCVVVDVSHEDPEVKFNWYVDGVEVHNAKTKPREEQYNSTYRVVSVLTVLHQDWLNGKEYKCKVSNKALPAPIEKTISKAKGQPREPQVYTLPPSRDELTKNQVSLTCLVKGFYPSDIAVEWESLGLVWVGYKTTPPVLDSDGSFFLYSKLTVPKSTWQQGWVFSCSVMHEALHNHYTQKSLSLSPGK
notes: modified Fc polypeptide
With B5, the binding result in assay [2] is reported as “binds”.
